Three molecules from article PMC7593309, “Structural insights into Arabidopsis ethylene response factor 96 with an extended N-terminal binding to GCC box” can be followed below.

Series [1] deals with T1, AtERF96 WT (Arabidopsis thaliana, UniProt Q9LSX0 1-131). Description: EMSA; fEMSA: 30 mM HEPES pH 7.4, 62.5 mM NaCl, 5% glycerol, 30 min RT, gel at 4 C; FP: 30 mM HEPES pH 7.4, 250 mM NaCl, 10% glycerol, 10 nM probe final (20 nM mixed 1:1). To be noted: protein: recombinant; tags: N-terminal 6xHis (pET28a); label: 5'-fluorescein on forward strand; blunt. Background: A gel shift assay detects complexes by their altered migration in electrophoresis.

Series [2] concerns the target T1, AtERF96 WT. In words: fluorescence polarization; two-site fit (KdHi, KdLo); fEMSA: 30 mM HEPES pH 7.4, 62.5 mM NaCl, 5% glycerol, 30 min RT, gel at 4 C; FP: 30 mM HEPES pH 7.4, 250 mM NaCl, 10% glycerol, 10 nM probe final (20 nM mixed 1:1). As to conditions: protein: recombinant; tags: N-terminal 6xHis (pET28a); label: 5'-fluorescein on forward strand. On the technique in general: Fluorescence polarisation rises when a labelled molecule tumbles more slowly, as on binding a larger partner.

The target in series [3] is T1, AtERF96 WT. Description: X-ray crystallography; 1.76 A; fEMSA: 30 mM HEPES pH 7.4, 62.5 mM NaCl, 5% glycerol, 30 min RT, gel at 4 C; FP: 30 mM HEPES pH 7.4, 250 mM NaCl, 10% glycerol, 10 nM probe final (20 nM mixed 1:1). As to conditions: protein: recombinant; tags: N-terminal 6xHis (pET28a); blunt.

T1 sequence (Q9LSX0 whole entry): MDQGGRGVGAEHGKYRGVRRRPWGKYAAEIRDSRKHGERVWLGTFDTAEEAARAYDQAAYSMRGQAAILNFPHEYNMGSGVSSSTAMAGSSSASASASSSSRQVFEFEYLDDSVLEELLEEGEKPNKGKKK

B1: GCC11 probe (fEMSA) (dsDNA)
DNA 1: TAGCCGCCAGC
DNA 2: GCTGGCGGCTA
Consider B1, for which, in the series with AtERF96 WT [1], the binding result is listed as “binds”.

B2: GCC12 (dsDNA)
DNA 1: GTAGCCGCCAGC
DNA 2: GCTGGCGGCTAC
Take B2: in the series with AtERF96 WT [2], the binding result is recorded as “binds”.

B3: GCC11 (crystal) (dsDNA)
DNA 1: TAGCCGCCAGC
DNA 2: GCTGGCGGCTA
With B3, in the series with AtERF96 WT [3], the binding result is “binds”.
